Target: T1, GluR2 (wild type, full length, expressed in HEKTrkB cells) (UniProt P19491 22-883)
T1 construct: AMPA receptor subunit GluR2, wild type cDNA in a CMV expression vector; the deletion mutants of the same cDNA end at residue 862; also called WT GluR2; full length GluR2; source: HEKTrkB cells, transiently co-transfected (cDNA downstream from the CMV promoter), in lysate
Test: co-IP; lysate of HEKTrkB cells co-transfected with GluR2 and GRIP1, treated with BDNF (1 h, 50 ng/mL) or not; precipitation with anti-N-terminal GluR2 and blot with anti-GRIP1, or precipitation with anti-GRIP1 and blot with anti-C-terminal GluR2/3
Settings: partners not purified

T1 sequence (P19491 22-883): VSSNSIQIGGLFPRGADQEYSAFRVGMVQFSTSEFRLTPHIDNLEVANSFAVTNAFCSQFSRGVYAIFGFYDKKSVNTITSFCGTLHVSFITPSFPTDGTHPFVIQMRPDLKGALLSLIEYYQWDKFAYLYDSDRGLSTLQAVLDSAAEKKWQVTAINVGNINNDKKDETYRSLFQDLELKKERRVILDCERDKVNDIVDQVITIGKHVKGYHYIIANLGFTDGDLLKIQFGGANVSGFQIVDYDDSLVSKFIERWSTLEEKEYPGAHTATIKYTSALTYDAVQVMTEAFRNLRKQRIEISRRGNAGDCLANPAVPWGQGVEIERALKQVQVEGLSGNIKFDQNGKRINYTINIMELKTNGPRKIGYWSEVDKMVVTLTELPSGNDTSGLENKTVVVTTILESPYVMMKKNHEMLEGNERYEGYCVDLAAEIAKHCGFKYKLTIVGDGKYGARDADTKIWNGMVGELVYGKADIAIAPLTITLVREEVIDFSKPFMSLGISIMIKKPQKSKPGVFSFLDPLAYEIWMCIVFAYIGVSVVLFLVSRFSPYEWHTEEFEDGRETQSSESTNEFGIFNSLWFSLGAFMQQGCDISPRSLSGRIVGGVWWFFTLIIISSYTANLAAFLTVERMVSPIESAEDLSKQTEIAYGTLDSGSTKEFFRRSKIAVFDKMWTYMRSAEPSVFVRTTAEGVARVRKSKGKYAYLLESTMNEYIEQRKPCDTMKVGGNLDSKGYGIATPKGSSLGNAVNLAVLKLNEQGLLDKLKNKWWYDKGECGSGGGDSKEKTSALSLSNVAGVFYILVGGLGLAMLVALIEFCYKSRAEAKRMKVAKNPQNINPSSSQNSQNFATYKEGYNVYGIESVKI

- fold change of the co-precipitate, 1 h BDNF against untreated cells: ~6 fold
B1: GRIP1 (expressed in HEKTrkB cells) (natural protein, UniProt P97879 1-1112, looked up)
chain: MIAVSFKCRCQILRRLTKDESPYTKSASQTKPPDGALAVRRQSIPEEFKGSTVVELMKKEGTTLGLTVSGGIDKDGKPRVSNLRQGGIAARSDQLDVGDYIKAVNGINLAKFRHDEIISLLKNVGERVVLEVEYELPPVSIQGSSVMFRTVEVTLHKEGNTFGFVIRGGAHDDRNKSRPVVITCVRPGGPADREGTIKPGDRLLSVDGIRLLGTTHAEAMSILKQCGQEATLLIEYDVSVMDSVATASGPLLVEVAKTPGASLGVALTTSVCCNKQVIVIDKIKSASIADRCGALHVGDHILSIDGTSMEYCTLAEATQFLANTTDQVKLEILPHHQTRLALKGPDHVKIQRSDRQLPWDPWASSQCSVHTNHHHNPHHPDHCRVPALGFPKALTPNSPPAMVSSSSPTSMSAYSLSSLNMGTLPRSLYSTSPRGTMMRRRLKKKDFKSSLSLASSTVGLAGQVVHTETTEVVLTADPVTGFGIQLQGSVFATETLSSPPLISYIEADSPAERCGVLQIGDRVMAINGIPTEDSTFEEANQLLRDSSITSKVTLEIEFDVAESVIPSSGTFHVKLPKKHSVELGITISSPSSRKPGDPLVISDIKKGSVAHRTGTLELGDKLLAIDNIRLDSCSMEDAVQILQQCEDLVKLKIRKDEDNSDEQESSGAIIYTVELKRYGGPLGITISGTEEPFDPIIISSLTKGGLAERTGAIHIGDRILAINSSSLKGKPLSEAIHLLQMAGETVTLKIKKQTDAQPASSPKKLPIPSHSSDLGDGEEDPSPIQRPGKLSDVYPSTVPSVDSAVDSWDGSGIDARYGSQGTTFQTSGYNFNTYDWRSPKKRASLSPVPKPRSQTYPDVGLSNEDWDRSTASGFAGASDSADAEQEENFWSQALEDLETCGQSGILRELEATIMSGSTMSLNHEAPTARSQLGRQASFQERSNSRPHYSQTTRSNTLPSDVGRKSVTLRKMKQEIKEIMSPTPVELHKVTLYKDSGMEDFGFSVADGLLEKGVYVKNIRPAGPGDLGGLKPYDRLLQVNHVRTRDFDCCLVVPLIAESGNKLDLVISRNPLASQKSIEQPALPSDWSEQNSAFFQQPSHGGNLETREPTNTL
notes: source: HEKTrkB cells, transiently co-transfected (cDNA downstream from the CMV promoter), in lysate

Reference: publication PMC3584105, “Acute BDNF Treatment Upregulates GluR1-SAP97 and GluR2-GRIP1 Interactions: Implications for Sustained AMPA Receptor Expression” (PLoS ONE, 2013)
